Experimental data: PMC7613515, “Reading and erasing of the phosphonium analogue of trimethyllysine by epigenetic proteins” (Communications Chemistry, 2022)
Like-named read-outs stand apart in the source and are kept apart here. Square brackets hold non-standard residues; d marks the D form. Ends that are not written are not given here. Lys(Me3) = C[N+](C)(C)CCCC[C@H](N)C(=O)O

Legend:
KDM4E = settings: reported, shorter H3_7-14K9me3 substrate; cited from earlier work
From the text: Reactions were monitored using MALDI-TOF mass spectrometry (Fig. 5b–d). […] Some JmjC KDMs can also catalyse N-methyl arginine demethylation and with appropriately sized N^ε-substitutions some can catalyse forma ...

[1] = target: T1, KDM5APHD3 (JARID1A-PHD3, residues M1489–V1641) (Homo sapiens, UniProt P29375); assay: ITC, association of histone H3 peptides with KDM5APHD3; assay type: binding; settings: 25 °C, H3 1-10 peptide (350–600 µM) into reader (25–40 µM), Tris (50 mM), NaCl (20 mM), pH 7.5, from 3 to 5 experiments
T1 construct: KDM5APHD3 (JARID1A-PHD3, residues M1489–V1641); made in house; host or cells: E. coli
T1 sequence (P29375 1489-1641): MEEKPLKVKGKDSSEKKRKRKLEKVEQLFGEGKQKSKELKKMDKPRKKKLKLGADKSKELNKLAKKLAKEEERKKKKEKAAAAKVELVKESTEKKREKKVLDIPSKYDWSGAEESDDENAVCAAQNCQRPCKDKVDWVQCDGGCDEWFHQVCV
From the text: (§1) We investigated the thermodynamics of association of the H3KP4me3 peptide with five representative human reader domains containing either a PHD zinc finger or TTD, i.e. KDM5APHD3 (JARID1A-PHD3, residues M1489–V1641)[10], TAF3PHD (R857–K924)[22], BPTFPHD (L2583–N2751)[23], SGF29TTD (R115–K293)[24] and KDM4ATTD (JMJD2A, Q897-P1011)[25], selected on the basis of their preference for binding Ν^ε-trimethyllysine over other (non)methylation marks (Kme0 < Kme1 < Kme2 < Kme3), and their domain and aromatic cage diversity. The recombinant readers were produced in E. coli following reported procedures. Isothermal titration calorimetric (ITC) analyses were used to determine the dissociation constant (Kd), the Gibbs free energy of binding (ΔG°), the enthalpy of binding (ΔH°), and the entropy of binding (ΔS°). […] (Table 1, Fig. 2, Supplementary Fig. 1).
(§2) The following purified reader domains: TAF3PHD (R857-K924), KDM5APHD3 (JARID1A, M1489-V1641), BPTFPHD (L2583-N2751), KDM4ATTD (JMJD2A, Q897-P1011) and SGF29TTD (R115-K293) were prepared as reported[10],[22]–[26]. The histone lysine demethylase were produced and purified to high purity via reported procedures KDM3A (JMJD1A, T515-S1317)[41], KDM4AJmjC[39] (JMJD2A, M1-L359), KDM4EJmjC (JMJD2E, M1–Q337)[34] and KDM7B[40] (PHF8, M37-N483 [NP_001171]). KDM5DJmjC was produced using an N-terminal hexa-His tagged KDM4D (KDM4DM1-L358) DNA construct, transformed into BL21(DE3) competent cells for recombinant protein production. Colonies were used to inoculate of LB media (50 mL) containing kanamycin (50 µg·mL^−1) and chloramphenicol (34 µg·mL^−1), which was placed in a 37 °C shaker overnight. The starter culture (10 mL) was used to inoculate TB media (6 × 1 L) containing kanamycin (50 µg·mL^−1) in 2 L baffled shaker flasks. After reaching an of OD600 of ~0.8, the temperature was reduced to 18 °C; at OD600 ~0.9 the cells were induced by the IPTG (0.5 mM) addition. After shaking overnight, the culture was centrifuged (5000 rpm, 10 mins), the media was decanted, and the cell pellet was suspended in Lysis Buffer [HEPES (50 mM), NaCl (500 mM), imidazole (20 mM), glycerol (5%) and TCEP (0.5 mM) in water (pH 7.4)]. The suspension was lysed by passaging through a high-pressure cell breaker (Avestin – EmulsiFlex-C5) for three rounds. The lysate was cleared by centrifugation (60 minutes, 36,000 × g, 4 °C), then loaded onto a Ni NTA gravity column. […]
(§3) ITC studies followed a reported procedure. […] Histone peptide titrations were performed with the same reader batches. Solutions of the reader in buffer (25–40 µM) and of the histone H3 peptide (350–600 µM) in buffer were prepared. […] Heats of dilution for histone peptides determined in control experiments were subtracted from the titration binding data. […]

TAF3PHD (R857–K924) [2] = target: T2, TAF3PHD (R857–K924) (Mus musculus, UniProt Q5HZG4); assay: ITC, association of histone H3 peptides with TAF3PHD; assay type: binding, human; settings: 25 °C, H3 1-10 peptide (350–600 µM) into reader (25–40 µM), Tris (50 mM), pH 7.5, from 3 to 5 experiments
T2 construct: TAF3PHD (R857–K924); made in house; host or cells: E. coli
T2 sequence (Q5HZG4 857-924 limits assumed): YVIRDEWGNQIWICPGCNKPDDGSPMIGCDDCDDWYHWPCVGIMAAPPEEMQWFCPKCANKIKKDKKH
From the text: as §1, §2, §3

SGF29TTD (R115–K293) [3] = target: T3, SGF29TTD (R115–K293) (Homo sapiens, UniProt Q96ES7); assay: ITC, association of histone H3 peptides with SGF29TTD; assay type: binding; settings: 25 °C, H3 1-10 peptide (350–600 µM) into reader (25–40 µM), pH 7.5, from 3 to 5 experiments
T3 construct: SGF29TTD (R115–K293); made in house; host or cells: E. coli
T3 sequence (Q96ES7 115-293): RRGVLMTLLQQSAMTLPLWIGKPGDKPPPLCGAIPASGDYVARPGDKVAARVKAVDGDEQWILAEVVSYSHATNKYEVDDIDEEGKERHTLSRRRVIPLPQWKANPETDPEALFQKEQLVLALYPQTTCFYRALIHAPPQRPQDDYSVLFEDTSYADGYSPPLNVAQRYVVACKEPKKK
From the text: as §1
(§4) The following purified reader domains: TAF3PHD (R857-K924), KDM5APHD3 (JARID1A, M1489-V1641), BPTFPHD (L2583-N2751), KDM4ATTD (JMJD2A, Q897-P1011) and SGF29TTD (R115-K293) were prepared as reported[10],[22]–[26]. The histone lysine demethylase were produced and purified to high purity via reported procedures KDM3A (JMJD1A, T515-S1317)[41], KDM4AJmjC[39] (JMJD2A, M1-L359), KDM4EJmjC (JMJD2E, M1–Q337)[34] and KDM7B[40] (PHF8, M37-N483 [NP_001171]). KDM5DJmjC was produced using an N-terminal hexa-His tagged KDM4D (KDM4DM1-L358) DNA construct, transformed into BL21(DE3) competent cells for recombinant protein production. Colonies were used to inoculate of LB media (50 mL) containing kanamycin (50 µg·mL^−1) and chloramphenicol (34 µg·mL^−1), which was placed in a 37 °C shaker overnight. The starter culture (10 mL) was used to inoculate TB media (6 × 1 L) containing kanamycin (50 µg·mL^−1) in 2 L baffled shaker flasks. After reaching an of OD600 of ~0.8, the temperature was reduced to 18 °C; at OD600 ~0.9 the cells were induced by the IPTG (0.5 mM) addition. After shaking overnight, the culture was centrifuged (5000 rpm, 10 mins), the media was decanted, and the cell pellet was suspended in Lysis Buffer [HEPES (50 mM), NaCl (500 mM), imidazole (20 mM), glycerol (5%) and TCEP (0.5 mM) in water (pH 7.4)]. The suspension was lysed by passaging through a high-pressure cell breaker (Avestin – EmulsiFlex-C5) for three rounds. The lysate was cleared by centrifugation (60 minutes, 36,000 × g, 4 °C), then loaded onto a Ni NTA gravity column. After extensive rinsing of the Ni-NTA gravity column with lysis buffer, the His-tagged protein was eluted in lysis buffer containing 300 mM imidazole. The eluted protein was concentrated and subjected to gel filtration chromatography using an AKTA Xpress system, an S200 16/600 gel filtration column, and GF buffer [HEPES (50 mM), NaCl (150 mM), glycerol (5%) and TCEP (0.5 mM) in water (pH 7.4)]. The protein identity was verified by LC-MS (ESI-TOF) observing a mass of 43759.7 Da, in accord with the predicted mass of 43751.6 Da.
as §3, with “procedure. The buffer used corresponded to that used in the final protein purification step.” for “procedure.”

[4] = target: T4, KDM4ATTD (JMJD2A, Q897-P1011) (Homo sapiens, UniProt O75164); assay: ITC, association of histone H3 peptides with KDM4ATTD; assay type: binding; settings: 25 °C, H3 1-10 peptide (350–600 µM) into reader (25–40 µM), Tris (50 mM), pH 7.5, from 3 to 5 experiments
T4 construct: KDM4ATTD (JMJD2A, Q897-P1011); made in house; host or cells: E. coli
T4 sequence (O75164 897-1011): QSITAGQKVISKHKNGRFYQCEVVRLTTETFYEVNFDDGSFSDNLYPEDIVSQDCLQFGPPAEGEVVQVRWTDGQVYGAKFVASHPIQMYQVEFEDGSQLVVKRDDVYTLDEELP
From the text: as §1, §4
ITC studies followed a reported procedure. The buffer used corresponded to that used in the final protein purification step. Briefly, TAF3PHD and KDM4ATTD: [Tris (50 mM) in water (pH 7.5)]; KDM5APHD3 and BTPFPHD: [Tris (50 mM), NaCl (20 mM) in water (pH 7.5)]; [Tris (25 mM), NaCl (50 mM), 1,4-dithiothreitol (1.0 mM) in water (pH 7.5)]. Experiments were conducted using ITC200 automated (GE Healthcare Life Sciences, USA) instrument at 25 °C. Histone peptide titrations were performed with the same reader batches. Solutions of the reader in buffer (25–40 µM) and of the histone H3 peptide (350–600 µM) in buffer were prepared. The prepared solutions were plated into a 96-well plate and inserted into the instrument for analysis. Experiments were performed according to manufacturer’s default settings: Plate pre-rinse syringe clean. A total of 19 injections were performed; each experiment was repeated 3–5 times. Heats of dilution for histone peptides determined in control experiments were subtracted from the titration binding data. […]

[5] = cited from earlier work
From the text: Some JmjC KDMs can also catalyse N-methyl arginine demethylation and with appropriately sized N^ε-substitutions some can catalyse forma ...

[6] = target: T1, KDM5APHD3 (JARID1A-PHD3, residues M1489–V1641); settings: reported, ITC, H3 1-10, cited from earlier work
From the text: page 30: Supplementary Table 5 Overview of reported ITC binding values of chromatin binding modules with H3 peptides (K d in µM) with various lysine modification. […] N.D. not determined; N.M: not measured. Modification KDM5A PHD3 TAF3PHD BPTFPHD SGF29TT ...

[7] = target: T4, KDM4ATTD (JMJD2A, Q897-P1011); settings: reported, ITC, H3 1-10, cited from earlier work
From the text: (§5) N.D. not determined; N.M: not measured. Modification KDM5A PHD3 TAF3PHD BPTFPHD SGF29TT ...

SGF29TTD (R115–K293) [8] = target: T3, SGF29TTD (R115–K293); settings: reported, ITC, H3 1-10, cited from earlier work
From the text: as §5

TAF3PHD (R857–K924) [9] = target: T2, TAF3PHD (R857–K924); settings: reported, ITC, H3 1-10, cited from earlier work
From the text: as §5

BPTFPHD (L2583–N2751) = target: T5, BPTFPHD (L2583–N2751) (Homo sapiens, UniProt Q12830); settings: reported, ITC, H3 1-10, cited from earlier work
T5 construct: BPTFPHD (L2583–N2751); made in house; host or cells: E. coli

H3_7-14K9me3: shorter H3_7-14K9me3 substrate (AR[Lys(Me3)]STGGK; UniProt P68431 8-15, looked up, fragment)
Km (KDM4E): 21.3 µM
kcat (KDM4E): 0.0767 s⁻¹

C[C@H](N)C(=O)N[C@@H](CCCNC(=N)N)C(=O)N[C@H](C(=O)N[C@@H](CCCC[N+](C)(C)C)C(=O)N[C@@H](CCC(N)=O)C(=O)N[C@H](C(=O)N[C@@H](C)C(=O)N[C@@H](CCCNC(=N)N)C(=O)N[C@@H](CCCCN)C(=O)N[C@@H](CO)C(N)=O)[C@@H](C)O)[C@@H](C)O [H3K4me3, reference compound]
Kd [1]: 0.52 µM
Kd (TAF3PHD (R857–K924) [2]): 0.11 µM
Kd (SGF29TTD (R115–K293) [3]): 3.2 µM
Kd [4]: 3.5 µM

C[P+](C)(C)C.[I-] [^+Pme4, reference compound]
volume [5]: 115 Å^3

L-K4me3: H3 1-10 peptide with L-K4me3 modification, Belle et al.
Kd ([6]; ref Belle et al. (SI ref 8)): 0.11 µM
Kd ([7]; ref Belle et al. (SI ref 8)): 1.1 µM
Kd (SGF29TTD (R115–K293) [8]; ref Belle et al. (SI ref 8)): 1.7 µM
Kd (TAF3PHD (R857–K924) [9]; ref Belle et al. (SI ref 8)): 0.082 µM
Kd (BPTFPHD (L2583–N2751); ref Belle et al. (SI ref 8)): 0.44 µM

K4G: K4me3 in H3K4me3 substituted for glycine (ARTGQTARKS)
Kd ([6]; ref Kamps et al. (SI ref 9)): 88 µM
Kd (TAF3PHD (R857–K924) [9]; ref Kamps et al. (SI ref 9)): 36 µM

K4Cme3: H3 1-10 peptide with K4Cme3 modification, Hintzen et al. (ARTCQTARKS; Cys4 S-alkylated with 2-(trimethylammonio)ethyl = trimethylthialysine, a cysteine-derived trimethyllysine analogue (identity inferred from the cited Hintzen et al. work))
Kd ([6]; ref Hintzen et al. (SI ref 11)): 0.15 µM
Kd ([7]; ref Hintzen et al. (SI ref 11)): 3.1 µM
Kd (SGF29TTD (R115–K293) [8]; ref Hintzen et al. (SI ref 11)): 6.1 µM
Kd (TAF3PHD (R857–K924) [9]; ref Hintzen et al. (SI ref 11)): 0.042 µM

K4Cme3: H3 1-10 peptide with K4Cme3 modification, Hintzen et al.
Kd (BPTFPHD (L2583–N2751); ref Hintzen et al. (SI ref 11)): 3.8 µM

C[N+](C)(C)C [^+Nme4, reference compound]
volume [5]: 105 Å^3
